These results are taken from patent US10464978B2, “Peptides and combination of peptides for use in immunotherapy against ovarian cancer and other cancers” (immatics biotechnologies GmbH, priority 2015, dated 2019).

The test deals with HLA-A*02:01 (Homo sapiens, UniProt P04439, D140Y/D185E/D98H/E176V/E277Q/G131W/G231S/I119V/I121R/I166T/I218V/L300P/L318F/N151K/N90K/P208A/P217A/Q86G/Q94H/R138H/R169H/T345S). The test is described as follows: MHC binding assay: UV-ligand exchange with beta2m ELISA (peptide exchange yield). Particulars: binding to HLA-A*02:01. The source says:
Candidate peptides for T cell based therapies according to the present invention were further tested for their MHC binding capacity (affinity). The individual peptide-MHC complexes were produced by UV-ligand exchange, where a UV-sensitive peptide is cleaved upon UV-irradiation, and exchanged with the peptide of interest as analyzed. Only peptide candidates that can effectively bind and stabilize the peptide-receptive MHC molecules prevent dissociation of the MHC complexes. To determine the yield of the exchange reaction, an ELISA was performed based on the detection of the light chain ([…]) of stabilized MHC complexes. The assay was performed as generally described in Rodenko et al. (Rodenko et al., 2006).
96 well MAXISorp plates (NUNC) were coated over night with 2 ug/ml streptavidin in PBS at room temperature, washed 4× and blocked for 1 h at 37° C. in 2% BSA containing blocking buffer. […] Peptide-MHC monomers of the UV-exchange reaction were diluted 100 fold in blocking buffer. Samples were incubated for 1h at 37° C., washed four times, incubated with 2 ug/ml HRP conjugated anti-β2m for 1h at 37° C., washed again and detected with TMB solution that is stopped with […]. Absorption was measured at 450 nm. Candidate peptides that show a high exchange yield (preferably higher than 50%, most preferred higher than 75%) are generally preferred for a generation and production of antibodies or fragments thereof, and/or T cell receptors or fragments thereof, as they show sufficient avidity to the MHC molecules and prevent dissociation of the MHC complexes.

Take “120 (ALLGIPLTLV; listed as Homo sapiens) [compound 120]”: the “Peptide exchange (MHC class I binding score, peptide exchange yield)” value (“Peptide exchange” for short) is listed as ““+++” (≥50 = +++)”. The same measure for “121 (GVVDPRAISVL; listed as Homo sapiens) [compound 121]”: ““++” (≥20% = ++)”; for “122 (FLLAEDDIYL; listed as Homo sapiens) [compound 122]”: ““+++” (≥50 = +++)”.

In the case of “123 (NLWDLTDASVV; listed as Homo sapiens) [compound 123]”, the “Peptide exchange” value was ““+++” (≥50 = +++)”. For “124 (ALYETELADA; listed as Homo sapiens) [compound 124]”, the “Peptide exchange” value is ““++” (≥20% = ++)”. The same measure for “125 (VQIHQVAQV; listed as Homo sapiens) [compound 125]”: ““+++” (≥50 = +++)”; for “126 (VLAYFLPEA; listed as Homo sapiens) [compound 126]”: ““++++” (≥75% = ++++)”. Regarding “127 (KIGDEPPKV; listed as Homo sapiens) [compound 127]”, the “Peptide exchange” value was ““++” (≥20% = ++)”. In the case of “128 (YLFDDPLSAV; listed as Homo sapiens) [compound 128]” it was ““++” (≥20% = ++)”. Turning to “129 (GLLDGGVDILL; listed as Homo sapiens) [compound 129]”, the “Peptide exchange” value is reported as ““+++” (≥50 = +++)”. As for “130 (FLWNGEDSALL; listed as Homo sapiens) [compound 130]”, the “Peptide exchange” value is on record as ““+++” (≥50 = +++)”. As to “131 (FVPPVTVFPSL; listed as Homo sapiens) [compound 131]”, the “Peptide exchange” value is listed as ““++” (≥20% = ++)”. With “132 (LLVEQPPLAGV; listed as Homo sapiens) [compound 132]”, the “Peptide exchange” value is given as ““+++” (≥50 = +++)”. In the case of “133 (KVLSNIHTV; listed as Homo sapiens) [compound 133]” it was ““++” (≥20% = ++)”; in that of “134 (YLQELIFSV; listed as Homo sapiens) [compound 134]”, ““+++” (≥50 = +++)”. In the case of “135 (ALSEVDFQL; listed as Homo sapiens) [compound 135]”, the “Peptide exchange” value was ““+++” (≥50 = +++)”.

Turning to “136 (YLADPSNLFVV; listed as Homo sapiens) [compound 136]”, the “Peptide exchange” value is ““+++” (≥50 = +++)”. The same measure for “137 (TLVLTLPTV; listed as Homo sapiens) [compound 137]”: ““++++” (≥75% = ++++)”.

In the case of “138 (YQYPRAILSV; listed as Homo sapiens) [compound 138]”, the “Peptide exchange” value is ““+++” (≥50 = +++)”. With “139 (SVMEVNSGIYRV; listed as Homo sapiens) [compound 139]”, the “Peptide exchange” value is listed as ““+++” (≥50 = +++)”. In the case of “140 (YMDAPKAAL; listed as Homo sapiens) [compound 140]” it was ““++” (≥20% = ++)”. In the case of “141 (YLDFSNNRL; listed as Homo sapiens) [compound 141]” it was ““++” (≥20% = ++)”; in that of “142 (FLFATPVFI; listed as Homo sapiens) [compound 142]”, ““+++” (≥50 = +++)”; in that of “143 (LLLDITPEI; listed as Homo sapiens) [compound 143]”, ““++++” (≥75% = ++++)”. On to “144 (YIMEPSIFNTL; listed as Homo sapiens) [compound 144]”, for which the “Peptide exchange” value is recorded as ““+++” (≥50 = +++)”. The same measure for “145 (FLATSGTLAGI; listed as Homo sapiens) [compound 145]”: ““++” (≥20% = ++)”; for “146 (SLATAGDGLIEL; listed as Homo sapiens) [compound 146]”: ““++” (≥20% = ++)”; for “147 (SLLEAVSFL; listed as Homo sapiens) [compound 147]”: ““+++” (≥50 = +++)”. The same measure for “148 (ALNPEIVSV; listed as Homo sapiens) [compound 148]”: ““++” (≥20% = ++)”; for “149 (NLLELFVQL; listed as Homo sapiens) [compound 149]”: ““+++” (≥50 = +++)”; for “150 (RLWEEGEELEL; listed as Homo sapiens) [compound 150]”: ““+++” (≥50 = +++)”. In the case of “151 (KILQQLVTL; listed as Homo sapiens) [compound 151]” it was ““+++” (≥50 = +++)”; in that of “152 (ILFEDIFDV; listed as Homo sapiens) [compound 152]”, ““+++” (≥50 = +++)”; in that of “153 (FLIANVLYL; listed as Homo sapiens) [compound 153]”, ““+” (≥10% = +)”. Consider “154 (ALDDGTPAL; listed as Homo sapiens) [compound 154]”, for which the “Peptide exchange” value is recorded as ““++” (≥20% = ++)”.

As for “155 (RVANLHFPSV; listed as Homo sapiens) [compound 155]”, the “Peptide exchange” value is ““+++” (≥50 = +++)”. The same measure for “157 (SLNDEVPEV; listed as Homo sapiens) [compound 157]”: ““++” (≥20% = ++)”. In the case of “158 (KLFDVDEDGYI; listed as Homo sapiens) [compound 158]” it was ““+++” (≥50 = +++)”; in that of “159 (GLVGNPLPSV; listed as Homo sapiens) [compound 159]”, ““++++” (≥75% = ++++)”. Consider “160 (FLFDEEIEQI; listed as Homo sapiens) [compound 160]”, for which the “Peptide exchange” value is ““+++” (≥50 = +++)”. The same measure for “161 (ALLEGVNTV; listed as Homo sapiens) [compound 161]”: ““+++” (≥50 = +++)”; for “162 (YQQAQVPSV; listed as Homo sapiens) [compound 162]”: ““+++” (≥50 = +++)”; for “163 (ALDEMGDLLQL; listed as Homo sapiens) [compound 163]”: ““+++” (≥50 = +++)”. The same measure for “164 (ALLPQPKNLTV; listed as Homo sapiens) [compound 164]”: ““+++” (≥50 = +++)”; for “165 (SLLDEIRAV; listed as Homo sapiens) [compound 165]”: ““+++” (≥50 = +++)”. For the substance “166 (YLNHLEPPV; listed as Homo sapiens) [compound 166]”, the “Peptide exchange” value is reported as ““+++” (≥50 = +++)”. The same measure for “167 (KVLEVTEEFGV; listed as Homo sapiens) [compound 167]”: ““+++” (≥50 = +++)”; for “168 (KILDADIQL; listed as Homo sapiens) [compound 168]”: ““++++” (≥75% = ++++)”. As for “169 (NLPEYLPFV; listed as Homo sapiens) [compound 169]”, the “Peptide exchange” value is ““+++” (≥50 = +++)”. The same measure for “170 (RLQETLSAA; listed as Homo sapiens) [compound 170]”: ““+++” (≥50 = +++)”. The same measure for “171 (LLLPLQILL; listed as Homo sapiens) [compound 171]”: ““+++” (≥50 = +++)”; for “172 (VLYSYTIITV; listed as Homo sapiens) [compound 172]”: ““++” (≥20% = ++)”; for “173 (LLDSASAGLYL; listed as Homo sapiens) [compound 173]”: ““+++” (≥50 = +++)”. For “174 (ALAQYLITA; listed as Homo sapiens) [compound 174]”, the “Peptide exchange” value is ““+++” (≥50 = +++)”.

Consider “175 (YLFENISQL; listed as Homo sapiens) [compound 175]”, for which the “Peptide exchange” value is reported as ““+++” (≥50 = +++)”. In the case of “176 (YLMEGSYNKVFL; listed as Homo sapiens) [compound 176]” it was ““++” (≥20% = ++)”.
